Experimental data: paper PMC12362114

Columns and labels:
[1] = anti-Flag Western blot, Hep3B lysates; settings: glycan lost; control: wild type 3xFlag-FASN
[2] = cycloheximide chase 0-24 h, protein remaining; settings: glycan lost; control: wild type 3xFlag-FASN
[3] = cell fractionation (membrane vs cytosol), Western blot; settings: glycan lost; control: wild type 3xFlag-FASN
[4] = BODIPY 493/503 staining, confocal, droplet count; settings: glycan lost; control: wild type 3xFlag-FASN
[5] = biological target: 3xFlag-FASN wild type (fatty acid synthase) (UniProt P49327); test: native gel or EMSA; lysates of transfected Hep3B cells (10 mM Tris/HCl, 1 mM EDTA, 1 mM EGTA, 0.5% Triton X-100, pH 7.5) on a 4-to-10% gradient gel, 50 V overnight at 4 °C, blotted for 3xFlag-FASN; monomers (~250 kDa) and dimers (~500 kDa)

| Substance | expression_or_secretion [1] | degradation_or_half_life [2] | localisation_or_trafficking [3] | other: lipid droplet number (activity proxy) [4] | stoichiometry N [5] |
| --- | --- | --- | --- | --- | --- |
| Fatty Acid Synthase (FASN): T980A | decreases | decreases | decreases |  |  |
| Fatty Acid Synthase (FASN): S595A | decreases |  | no change | no change |  |
| 3xFlag-FASN wild type (fatty acid synthase), P49327 1-2511 |  |  |  |  | 2 |
